According to paper PMC3245471:

Columns and labels:
[1] = target: glucose 6-phosphate dehydrogenase from Leuconostoc mesenteroides, guanidine-denatured (Leuconostoc mesenteroides) (UniProt P11411)
[2] = target: tobacco Trx f C19/71S double mutant, His-tagged (Nicotiana tabacum); experiment: non-reducing SDS-PAGE with Western blot
[3] = target: tobacco Trx f C71S mutant, His-tagged (Nicotiana tabacum); experiment: non-reducing SDS-PAGE with Western blot

Sequence of UniProt P11411 (P11411 whole entry): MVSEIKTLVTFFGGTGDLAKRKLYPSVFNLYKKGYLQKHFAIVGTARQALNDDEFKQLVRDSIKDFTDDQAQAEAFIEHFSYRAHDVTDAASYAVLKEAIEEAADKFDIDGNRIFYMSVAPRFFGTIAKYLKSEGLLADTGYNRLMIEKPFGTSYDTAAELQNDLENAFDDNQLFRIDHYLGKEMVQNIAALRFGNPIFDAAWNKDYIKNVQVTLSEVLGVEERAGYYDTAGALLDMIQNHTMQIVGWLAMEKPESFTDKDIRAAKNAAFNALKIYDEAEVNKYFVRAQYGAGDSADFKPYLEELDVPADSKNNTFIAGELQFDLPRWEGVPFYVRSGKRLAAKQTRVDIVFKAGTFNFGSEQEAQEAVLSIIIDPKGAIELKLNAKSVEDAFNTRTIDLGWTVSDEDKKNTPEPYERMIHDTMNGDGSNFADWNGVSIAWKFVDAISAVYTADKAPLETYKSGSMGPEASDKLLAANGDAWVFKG

## tobacco Trx f C19/71S double mutant, His-tagged (enzyme)
[1]
  chaperone foldase activity (G6PDH reactivation) relative to wild-type Trx f: 80 % decrease
[2]
  stoichiometry N: 2

## tobacco Trx f C71S mutant, His-tagged (enzyme)
[1]
  chaperone foldase activity (G6PDH reactivation) relative to wild-type Trx f: 80 % decrease
[3]
  stoichiometry N: 2
